Reference: PMC10565793, “Biochemical and X-ray analyses of the players involved in the faRel2/aTfaRel2 toxin–antitoxin operon” (Acta Crystallographica. Section F, Structural Biology …, 2023)

Molecular target: T1, FaRel2^Y128F (catalytically impaired toxin FaRel2 from Coprobacillus sp. D7) (Coprobacillus sp. D7, Y128F (stands in the printed letters))
T1 construct: The His6-SUMO tag was removed with UlpI, and complete removal was confirmed by anti-His Western blot; also called tagless FaRel2^Y128F; His6-SUMO-FaRel2^Y128F (before cleavage); source: E. coli BL21(DE3), purified (Ni-NTA, SEC, UlpI cleavage, TALON, SEC); not shown: His6, N-terminal, cleaved; SUMO, N-terminal, cleaved
Experiment: SEC; analytical SEC on a Superdex 75 Increase column in 25 mM HEPES, 300 mM NaCl, 1 mM TCEP, 2 mM MgCl2; proteins run alone, or FaRel2^Y128F and ATfaRel2 mixed in a 1:1.2 molar ratio; molecular weights estimated from elution volume
Conditions: both partners purified

B1: 6×His-TEV-ATfaRel2 (antitoxin ATfaRel2 from Coprobacillus sp. D7) (natural protein)
chain: AMCYIIAKRFKKSGCVALKAKRGKELADFATDLQKKLGYDIQIVAITRPTAYGEYEPYKFVNSFEEFSIEASRL
notes: The tag is not reported as removed; also called His6-TEV-ATfaRel2; source: E. coli BL21 (DE3), purified (Ni-NTA, SEC)
stoichiometry N: 1 ATfaRel2 per FaRel2^Y128F (2:2 heterotetramer)
